# Assay results published in patent US10280205B2, “Method for treating cancer with an activated T lymphocyte that selectively recognizes a cancer cell consisting of specific peptide” (immatics biotechnologies GmbH, priority 2015, dated 2019).
# Target: HLA-A*02:01 (Homo sapiens, UniProt P04439, D140Y/D185E/D98H/E176V/E277Q/G131W/G231S/I119V/I121R/I166T/I218V/L300P/L318F/N151K/N90K/P208A/P217A/Q86G/Q94H/R138H/R169H/T345S)
# Test: MHC binding assay: UV-ligand exchange with beta2m ELISA (exchange yield)
# Conditions: binding to HLA-A*02:01, β2m ELISA
# Source text: Candidate peptides for T cell based therapies according to the present invention were further tested for their MHC binding capacity (affinity). The individual peptide-MHC complexes were produced by UV-ligand exchange, where a UV-sensitive peptide is cleaved upon UV-irradiation, and exchanged with the peptide of interest as analyzed. Only peptide candidates that can effectively bind and stabilize the peptide-receptive MHC molecules prevent dissociation of the MHC complexes. To determine the yield of the exchange reaction, an ELISA was performed based on the detection of the light chain (β2m) of stabilized MHC complexes. The assay was performed as generally described in Rodenko et al. (Rodenko et al., 2006).
# 96 well MAXISorp plates (NUNC) were coated over night with 2 ug/ml streptavidin in PBS at room temperature, washed 4× and blocked for 1 h at 37° C. in 2% BSA containing blocking buffer. […] Peptide-MHC monomers of the UV-exchange reaction were diluted 100 fold in blocking buffer. Samples were incubated for 1h at 37° C., washed four times, incubated with 2 ug/ml HRP conjugated anti-β2m for 1h at 37° C., washed again and detected with TMB solution that is stopped with […]. Absorption was measured at 450 nm. Candidate peptides that show a high exchange yield (preferably higher than 50%, most preferred higher than 75%) are generally preferred for a generation and production of antibodies or fragments thereof, and/or T cell receptors or fragments thereof, as they show sufficient avidity to the MHC molecules and prevent dissociation of the MHC complexes.
row,Substance,"Peptide exchange (MHC class I binding score, peptide exchange yield)"
1,508 (ILAQEQLVVGV; listed as Homo sapiens) [compound 508],“+++” (≥50 = +++)
2,614 (LLLPDQPPYHL; listed as Homo sapiens) [compound 614],“+++” (≥50 = +++)
3,509 (FLFDTKPLIV; listed as Homo sapiens) [compound 509],“+++” (≥50 = +++)
4,41 (SLMPHIPGL; listed as Homo sapiens) [compound 41],“+++” (≥50 = +++)
5,157 (SLNDEVPEV; listed as Homo sapiens) [compound 157],“++” (≥20% = ++)
6,552 (GLLDLPFRVGV; listed as Homo sapiens) [compound 552],“++++” (≥75% = ++++)
7,155 (RVANLHFPSV; listed as Homo sapiens) [compound 155],“+++” (≥50 = +++)
8,32 (KLDDLTQDLTV; listed as Homo sapiens) [compound 32],“++” (≥20% = ++)
9,275 (YLVYILNEL; listed as Homo sapiens) [compound 275],“++” (≥20% = ++)
10,47 (ILLSVPLLVV; listed as Homo sapiens) [compound 47],“++” (≥20% = ++)
11,474 (YLDPALELGPRNV; listed as Homo sapiens) [compound 474],“+++” (≥50 = +++)
12,103 (TLAEEVVAL; listed as Homo sapiens) [compound 103],“+++” (≥50 = +++)
13,138 (YQYPRAILSV; listed as Homo sapiens) [compound 138],“+++” (≥50 = +++)
14,180 (FQIDPHSGLVTV; listed as Homo sapiens) [compound 180],“++” (≥20% = ++)
15,543 (GLLPTPITQQASL; listed as Homo sapiens) [compound 543],“+++” (≥50 = +++)
16,187 (RQISIRGIVGV; listed as Homo sapiens) [compound 187],“+++” (≥50 = +++)
17,502 (RLLAQVPGL; listed as Homo sapiens) [compound 502],“+++” (≥50 = +++)
18,330 (QLALKVEGV; listed as Homo sapiens) [compound 330],“+++” (≥50 = +++)
19,471 (YLYNNMIAKI; listed as Homo sapiens) [compound 471],“+++” (≥50 = +++)
20,373 (SLLEDKGLAEV; listed as Homo sapiens) [compound 373],“++” (≥20% = ++)
21,391 (YVYPQRLNFV; listed as Homo sapiens) [compound 391],“+++” (≥50 = +++)

row,Substance,"Peptide exchange (MHC class I binding score, peptide exchange yield)"
1,514 (ILVDWLVQV; listed as Homo sapiens) [compound 514],“+++” (≥50 = +++)
2,71 (GILARIASV; listed as Homo sapiens) [compound 71],“+++” (≥50 = +++)
3,387 (ALFQATAEV; listed as Homo sapiens) [compound 387],“++++” (≥75% = ++++)
4,86 (NLIGKIENV; listed as Homo sapiens) [compound 86],“+++” (≥50 = +++)
5,232 (ALLEAQDVELYL; listed as Homo sapiens) [compound 232],“++” (≥20% = ++)
6,427 (ALLPLSPYL; listed as Homo sapiens) [compound 427],“+++” (≥50 = +++)
7,529 (LLADELITV; listed as Homo sapiens) [compound 529],“+++” (≥50 = +++)
8,154 (ALDDGTPAL; listed as Homo sapiens) [compound 154],“++” (≥20% = ++)
9,301 (FLVEDLVDSL; listed as Homo sapiens) [compound 301],“+++” (≥50 = +++)
10,317 (SLAALVVHV; listed as Homo sapiens) [compound 317],“+++” (≥50 = +++)
11,488 (FLAEDPKVTL; listed as Homo sapiens) [compound 488],“+++” (≥50 = +++)
12,212 (ALWDQDNLSV; listed as Homo sapiens) [compound 212],“++” (≥20% = ++)
13,475 (LLLNEEALAQI; listed as Homo sapiens) [compound 475],“+++” (≥50 = +++)
14,326 (FLPEALDFV; listed as Homo sapiens) [compound 326],“+++” (≥50 = +++)
15,553 (SLLNQDLHWSL; listed as Homo sapiens) [compound 553],“++++” (≥75% = ++++)
16,331 (KVDTVWVNV; listed as Homo sapiens) [compound 331],“+++” (≥50 = +++)
17,495 (FIFSEKPVFV; listed as Homo sapiens) [compound 495],“+++” (≥50 = +++)
18,503 (SLNHFTHSV; listed as Homo sapiens) [compound 503],“+++” (≥50 = +++)
19,276 (ALFTFSPLTV; listed as Homo sapiens) [compound 276],“+++” (≥50 = +++)
20,140 (YMDAPKAAL; listed as Homo sapiens) [compound 140],“++” (≥20% = ++)
21,602 (YLLEQIKLIEV; listed as Homo sapiens) [compound 602],“++++” (≥75% = ++++)

row,Substance,"Peptide exchange (MHC class I binding score, peptide exchange yield)"
1,487 (LLINSVFHV; listed as Homo sapiens) [compound 487],“+++” (≥50 = +++)
2,10 (FLATFPLAAV; listed as Homo sapiens) [compound 10],“++++” (≥75% = ++++)
3,438 (KLLPLAGLYL; listed as Homo sapiens) [compound 438],“++++” (≥75% = ++++)
4,321 (GLFEDVTQPGILL; listed as Homo sapiens) [compound 321],“++++” (≥75% = ++++)
5,351 (SLIPNLRNV; listed as Homo sapiens) [compound 351],“+++” (≥50 = +++)
6,285 (QLLHVGVTV; listed as Homo sapiens) [compound 285],“+++” (≥50 = +++)
7,362 (TLYGLSVLL; listed as Homo sapiens) [compound 362],“+++” (≥50 = +++)
8,237 (ALLEASGTLLL; listed as Homo sapiens) [compound 237],“++++” (≥75% = ++++)
9,462 (KLAKQPETV; listed as Homo sapiens) [compound 462],“+++” (≥50 = +++)
10,110 (FLSQVDFEL; listed as Homo sapiens) [compound 110],“+++” (≥50 = +++)
11,570 (ALANQIPTV; listed as Homo sapiens) [compound 570],“++” (≥20% = ++)
12,311 (RLYTGMHTV; listed as Homo sapiens) [compound 311],“+++” (≥50 = +++)
13,44 (ILDPISSGFLL; listed as Homo sapiens) [compound 44],“++” (≥20% = ++)
14,481 (GLIEDYEALL; listed as Homo sapiens) [compound 481],“+++” (≥50 = +++)
15,601 (SAFPFPVTV; listed as Homo sapiens) [compound 601],“+++” (≥50 = +++)
16,568 (TLYDIAHTPGV; listed as Homo sapiens) [compound 568],“++++” (≥75% = ++++)
17,468 (YLRSVGDGETV; listed as Homo sapiens) [compound 468],“+++” (≥50 = +++)
18,7 (SLVGLLLYL; listed as Homo sapiens) [compound 7],“++++” (≥75% = ++++)
19,101 (ILVGGGALATV; listed as Homo sapiens) [compound 101],“+++” (≥50 = +++)
